The values below come from US20250136687A1 (SHANDONG SIMCERE BIOPHARMACEUTICAL, published 2025).

Like-named read-outs stand apart in the source and are kept apart here.

For assay [1], the target named is T1, human CD3 on the cell surface (Jurkat cells, expanded human T cells, Jurkat-Lucia NFAT cells, human PBMC) (human, UniProt P07766 23-207; P04234 22-171; P09693 23-182).
T1 construct: whole, on cells; Endogenous CD3 within the TCR-CD3 complex on cells (also zeta chains and TCR); the cell type is named under assay
T1 sequence (P07766 23-207, chain 1 of 3): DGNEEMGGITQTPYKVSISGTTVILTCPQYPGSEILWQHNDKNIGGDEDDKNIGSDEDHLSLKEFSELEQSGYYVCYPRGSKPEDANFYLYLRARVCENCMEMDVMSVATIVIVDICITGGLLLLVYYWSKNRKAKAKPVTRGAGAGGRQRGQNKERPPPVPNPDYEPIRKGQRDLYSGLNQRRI
T1 sequence (P04234 22-171, chain 2 of 3): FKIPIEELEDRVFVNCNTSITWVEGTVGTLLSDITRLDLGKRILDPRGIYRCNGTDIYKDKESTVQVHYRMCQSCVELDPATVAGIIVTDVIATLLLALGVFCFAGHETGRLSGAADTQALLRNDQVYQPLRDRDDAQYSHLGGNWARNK
T1 sequence (P09693 23-182, chain 3 of 3): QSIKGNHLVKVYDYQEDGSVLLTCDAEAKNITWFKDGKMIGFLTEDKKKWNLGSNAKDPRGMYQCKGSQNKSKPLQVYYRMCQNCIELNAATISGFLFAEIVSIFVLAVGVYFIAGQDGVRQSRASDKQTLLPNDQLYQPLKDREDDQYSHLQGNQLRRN
The assay is described as follows: FACS, Jurkat cells. On the procedure: (§1) The binding of the chimeric antibodies to CD3 on the cell surface was analyzed by detecting the binding of the antibodies to Jurkat cells and human T cells. Suspension cells Jurkat cells were scale-up cultured in T-75 cell culture flasks to the logarithmic growth phase, the supernatant of the medium was discarded by centrifugation, and the cell pellet was washed 2 times with PBS for later use. The expanded human T cells were washed 2 times with PBS for later use. After counting the cells in the previous step, the cell pellet was resuspended with [PBS+2% (w/w) BSA] blocking solution to 4×10⁶ cells/ml, and added to a 96-well FACS reaction plate at 50 μl/well, and then the chimeric antibody to be tested was added at 50 μl/well, and incubated at 4° C. for 1 h. The cells were centrifuged and washed 3 times with a PBS buffer. […] The cells were centrifuged and washed 5 times with PBS, and FACS (FACS Canto™, purchased from BD Company) was used for detection and result analysis. Data analysis was performed by software (CellQuest) to obtain the mean fluorescence […] (MFI) of the cells. And then software (GraphPad Prism8) was used for analysis, data fitting, and EC50 value calculation. The same method was used to simultaneously detect the binding of the chimeric antibodies to endogenous CD3 negative cells MOLT4 cells.

In assay [2] the target is T2, recombinant human CD3ε-ECD His protein (human, UniProt P07766 23-126).
T2 construct: extracellular domain; also called human CD3ε-His; CD3ε antigen protein; not shown: His tag
T2 sequence (P07766 23-126): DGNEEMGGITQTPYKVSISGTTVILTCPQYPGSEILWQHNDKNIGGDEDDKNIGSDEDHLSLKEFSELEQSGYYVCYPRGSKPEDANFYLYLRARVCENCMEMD
The assay is described as follows: ELISA, coated antigen.

The target in a further assay is T3, monkey CD3ε/δ-His (monkey, UniProt Q95LI5 22-117; Q95LI8 22-105).
T3 construct: Bought recombinant heterodimer with His tag
The assay is described as follows: ELISA, coated antigen.

The target in a further assay is T4, monkey CD3ε protein (monkey, UniProt Q95LI5 22-117, limits assumed).
T4 sequence (looked up): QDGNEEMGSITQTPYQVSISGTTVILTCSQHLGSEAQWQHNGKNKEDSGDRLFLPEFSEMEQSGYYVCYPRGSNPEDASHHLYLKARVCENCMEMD
The assay is described as follows: ELISA, coated antigen.

Assay [3] concerns the target T1, human CD3 on the cell surface (Jurkat …). The assay is described as follows: cell-based or functional assay.
Assay [4] shares this target. The assay is described as follows: cell-based or functional assay. This is another data set of the same source.
Assay [5] has the same target. The assay is described as follows: cell-based or functional assay. This is another data set of the same source.
The target is the same in assay [6]. The assay is described as follows: cell-based or functional assay. This is another data set of the same source.
The target of assay [7] is T5, cynomolgus monkey CD3 on the surface of expanded monkey T cells (cynomolgus monkey, UniProt Q95LI5 22-198; Q95LI8 22-171; Q95LI7 23-181).
T5 construct: whole, on cells; Endogenous CD3 within the TCR-CD3 complex on T cells expanded from cynomolgus monkey PBMC
T5 sequence (Q95LI5 22-198, chain 1 of 3): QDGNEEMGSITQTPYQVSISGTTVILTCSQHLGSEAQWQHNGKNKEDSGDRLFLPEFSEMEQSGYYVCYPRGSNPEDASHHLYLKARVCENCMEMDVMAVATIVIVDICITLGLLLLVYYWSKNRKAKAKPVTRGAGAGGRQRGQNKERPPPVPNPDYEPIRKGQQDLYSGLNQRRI
T5 sequence (Q95LI8 22-171, chain 2 of 3): as the sequence (P04234 22-171, chain 2 of 3) above, with I5V, N15K, I20V, S32T, D33N, I34N, T64A, S74N, V83L, H141R counted along it
T5 sequence (Q95LI7 23-181, chain 3 of 3): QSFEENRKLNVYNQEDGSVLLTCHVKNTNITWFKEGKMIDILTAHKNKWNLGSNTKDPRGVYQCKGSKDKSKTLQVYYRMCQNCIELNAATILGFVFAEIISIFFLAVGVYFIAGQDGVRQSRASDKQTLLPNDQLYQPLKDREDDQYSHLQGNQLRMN
The assay is described as follows: FACS, expanded monkey T cells. Here is the method: as §1
(§2) FACS detection and data analysis were performed on the cryopreserved monkey T cells of Example 2.4 according to the method in Example 5.1.

Assay [8] addresses T5, cynomolgus monkey CD3 on the surface of …. The assay is described as follows: FACS, expanded monkey T cells. On the procedure:
as §1, §2
The source holds these as a separate data set.

For assay [9] the target is unchanged. The assay is described as follows: FACS, expanded monkey T cells. On the procedure:
as §1, with “MOLT4 cells. […]” for “MOLT4 cells.”
This is another data set of the same source.

B1: F2B-hIgG1 (antibody, V domains shown)
VH: EVQLVESGGGLVQPGRSLRLSCAASGFTFDDYAMHWVRQAPGKGLEWVSGISWNSGSIGYADSVKGRFTISRDNAKNSLYLQMNSLRAEDTALYYCAKDSRGYGDYRLGGAYWGQGTLVTVSS
VL: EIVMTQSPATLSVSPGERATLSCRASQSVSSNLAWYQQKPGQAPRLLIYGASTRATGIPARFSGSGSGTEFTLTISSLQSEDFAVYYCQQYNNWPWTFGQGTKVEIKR
notes: also called F2Bs
B1 displayed an EC50 in [1] of 6.18 nM. Also, in [1], the MFI_Max amounted to 2080 MFI. In addition, the max-OD450 amounted to 0.05 OD450 in [2], 0.05 OD450 in the assay with monkey CD3ε/δ-His and 0.06 OD450 in the assay with monkey CD3ε protein. In addition, the binding result with monkey CD3ε protein is “no binding (tested: 100 nM (initial concentration))”. In addition, the “EC50 (nM), luciferase reporter, Jurkat-Lucia NFAT cells” value is 23.7 nM in [3] and 7.41 nM in assay [5]. Besides, the “Maximum response value (RLU)” value amounted to 14500 RLU in assay [3], 12000 RLU in assay [4], 6560 RLU in [5] and 8220 RLU in [6].

B2: 40G5c-hIgG1 (antibody, V domains shown)
VH: EVQLVQSGAEVKKPGASVKVSCKASGYTFTNYYIHWVRQAPGQGLEWIGWIYPGDGNTKYNEKFKGRATLTADTSTSTAYLELSSLRSEDTAVYYCARDSYSNYYFDYWGQGTLVTVSS
VL: DIVMTQSPDSLAVSLGERATINCKSSQSLLNSRTRKNYLAWYQQKPGQPPKLLIYWASTRESGVPDRFSGSGSGTDFTLTISSLQAEDVAVYYCTQSFILRTFGQGTKVEIKR
As to B2, the EC50 in [1] is 0.47 nM; in [2], 0.22 nM; with monkey CD3ε/δ-His, 0.0754 nM; with monkey CD3ε protein, 0.128 nM; in [7], 0.28 nM; in assay [8], 0.63 nM. The EC50 in assay [9] is 0.53 nM. Besides, the MFI_Max turned out to be 11300 MFI in [1], 66000 MFI in assay [7] and 24100 MFI in [8]. Moreover, the max-OD450 in [2] is 1.49 OD450; with monkey CD3ε/δ-His it was 2.52 OD450; in the assay with monkey CD3ε protein, 2.96 OD450. In addition, the “EC50 (nM), luciferase reporter, Jurkat-Lucia NFAT cells” value amounted to 1.74 nM in assay [3], 5.97 nM in assay [4], 5.04 nM in [5] and 22.5 nM in assay [6]. Also, the “Maximum response value (RLU)” value is 33400 RLU in assay [3], 46900 RLU in assay [4], 14300 RLU in assay [5] and 25400 RLU in assay [6].
